# Measurements as given in IntAct's records for PubMed 32873725.
# B1: Phospholamban (Mus musculus), P61014 (parent)
# chain: MEKVQYLTRSAIRRASTIEMPQQARQNLQNLFINFCLILICLLLICIIVMLL
# Variants of: B1
# Details: with kcc2d_human CAMK2D
row,Variant,effect of a mutation on the interaction
1,MEKVQYLTRSAIRRAATIEMPQQARQNLQNLFINFCLILICLLLICIIVMLL [S16A],with no effect
